Measurements as given in PMC5560055 (Journal of molecular biology, 2014).

Tests used:
[1] = target: zip from GCN4 (T25-zip and T18-zip, positive control of the BACTH kit); test: two-hybrid
[2] = target: T1, N-terminally His-tagged PflB (E. coli, UniProt P09373 2-760); test: cross-linking
T1 sequence: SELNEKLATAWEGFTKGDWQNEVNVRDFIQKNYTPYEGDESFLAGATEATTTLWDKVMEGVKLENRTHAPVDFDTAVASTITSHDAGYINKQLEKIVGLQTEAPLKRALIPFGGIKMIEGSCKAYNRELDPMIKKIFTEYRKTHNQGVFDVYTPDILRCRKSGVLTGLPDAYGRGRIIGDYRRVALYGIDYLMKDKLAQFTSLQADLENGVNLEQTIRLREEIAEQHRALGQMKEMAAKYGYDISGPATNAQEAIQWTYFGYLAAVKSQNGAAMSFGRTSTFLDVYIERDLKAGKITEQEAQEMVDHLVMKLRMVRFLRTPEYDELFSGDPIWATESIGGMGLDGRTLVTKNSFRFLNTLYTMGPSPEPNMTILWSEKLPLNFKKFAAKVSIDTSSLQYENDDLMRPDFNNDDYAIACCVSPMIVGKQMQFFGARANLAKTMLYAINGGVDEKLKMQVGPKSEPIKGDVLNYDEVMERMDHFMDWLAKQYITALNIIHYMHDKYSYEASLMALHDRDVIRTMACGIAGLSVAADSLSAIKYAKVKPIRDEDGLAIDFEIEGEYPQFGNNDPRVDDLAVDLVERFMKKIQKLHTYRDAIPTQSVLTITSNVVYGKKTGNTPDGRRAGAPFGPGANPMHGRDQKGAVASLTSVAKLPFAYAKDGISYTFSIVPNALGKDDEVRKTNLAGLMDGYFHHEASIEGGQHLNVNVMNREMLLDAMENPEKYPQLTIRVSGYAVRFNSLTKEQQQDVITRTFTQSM

[3] = target: T1, N-terminally His-tagged PflB; test: pull-down

Which β-galactosidase activity [1] does the source give for “zip from GCN4 (T25-zip and T18-zip, positive control of the BACTH kit) (domain or fragment)” here?
Its β-galactosidase activity is 715 units.

B1: FocA, purified preparation used for BS2G cross-linking (natural protein, E. coli)
chain: MKADNPFDLLLPAAMAKVAEEAGVYKATKHPLKTFYLAITAGVFISIAFVFYITATTGTGTMPFGMAKLVGGICFSLGLILCVVCGADLFTSTVLIVVAKASGRITWGQLAKNWLNVYFGNLVGALLFVLLMWLSGEYMTANGQWGLNVLQTADHKVHHTFIEAVCLGILANLMVCLAVWMSYSGRSLMDKAFIMVLPVAMFVASGFEHSIANMFMIPMGIVIRDFASPEFWTAVGSAPENFSHLTVMNFITDNLIPVTIGNIIGGGLLVGLTYWVIYLRENDHH
Does B1 bind [2]?
Result: binds

B2: N-terminally Strep-tagged FocA (formate channel A) (natural protein, E. coli, UniProt P0AC23 1-285, looked up)
chain: MKADNPFDLLLPAAMAKVAEEAGVYKATKHPLKTFYLAITAGVFISIAFVFYITATTGTGTMPFGMAKLVGGICFSLGLILCVVCGADLFTSTVLIVVAKASGRITWGQLAKNWLNVYFGNLVGALLFVLLMWLSGEYMTANGQWGLNVLQTADHKVHHTFIEAVCLGILANLMVCLAVWMSYSGRSLMDKAFIMVLPVAMFVASGFEHSIANMFMIPMGIVIRDFASPEFWTAVGSAPENFSHLTVMNFITDNLIPVTIGNIIGGGLLVGLTYWVIYLRENDHH
Does B2 bind [3]?
Result: binds
